From patent publication US10435456B2, “Compositions and methods for increasing the expression and signalling of proteins on cell surfaces” (THE JOHNS HOPKINS UNIVERSITY, priority 2014, dated 2019)
“Also recorded” adds a separate entry of the source.

T1: mOREG (Mus musculus, UniProt Q920P2)
T1 construct: The mOR-EG full-length construct, containing N-terminal Flag/Rho tags, was a kind gift from Kazushige Touhara; only in the L-EG and L-R-EG constructs) (N, cleaved yes); expressed in transfected cells; host or cells: HEK293T
T1 sequence (Q920P2 1-313): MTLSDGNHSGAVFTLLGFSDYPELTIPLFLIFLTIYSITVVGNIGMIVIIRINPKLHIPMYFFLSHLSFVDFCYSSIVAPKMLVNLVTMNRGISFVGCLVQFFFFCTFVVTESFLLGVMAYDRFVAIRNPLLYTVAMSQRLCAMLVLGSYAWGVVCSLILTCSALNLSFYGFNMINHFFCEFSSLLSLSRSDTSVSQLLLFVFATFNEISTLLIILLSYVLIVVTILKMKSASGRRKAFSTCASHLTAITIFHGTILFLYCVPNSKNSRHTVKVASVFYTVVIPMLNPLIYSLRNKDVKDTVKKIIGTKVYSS

T2: Olfr691 (Mus musculus, UniProt Q8VGW5)
T2 sequence (Q8VGW5 1-322): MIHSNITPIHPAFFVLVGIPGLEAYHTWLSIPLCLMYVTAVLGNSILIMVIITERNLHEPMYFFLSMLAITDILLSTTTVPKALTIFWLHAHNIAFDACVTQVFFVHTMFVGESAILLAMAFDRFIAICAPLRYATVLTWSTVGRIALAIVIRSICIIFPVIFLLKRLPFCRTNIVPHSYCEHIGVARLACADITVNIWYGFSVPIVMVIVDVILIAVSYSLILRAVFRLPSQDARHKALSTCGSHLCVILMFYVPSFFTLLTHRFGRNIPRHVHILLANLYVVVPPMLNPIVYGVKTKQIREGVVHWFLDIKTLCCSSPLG

B1: hOR52B2: human homologue of Olfr691, Flag-tagged construct (protein, UniProt Q96RD2 1-323, looked up)
Olfactory receptor 52B2: MSHTNVTIFHPAVFVLPGIPGLEAYHIWLSIPLCLIYITAVLGNSILIVVIVMERNLHVPMYFFLSMLAVMDILLSTTTVPKALAIFWLQAHNIAFDACVTQGFFVHMMFVGESAILLAMAFDRFVAICAPLRYTTVLTWPVVGRIALAVITRSFCIIFPVIFLLKRLPFCLTNIVPHSYCEHIGVARLACADITVNIWYGFSVPIVMVILDVILIAVSYSLILRAVFRLPSQDARHKALSTCGSHLCVILMFYVPSFFTLLTHHFGRNIPQHVHILLANLYVAVPPMLNPIVYGVKTKQIREGVAHRFFDIKTWCCTSPLGS
modifications: Flag tag
notes: human homologue of Olfr691, Flag-tagged construct
B2: hOR51E2: human olfactory receptor, Flag-tagged construct (protein, UniProt Q9H255 1-320, looked up)
Olfactory receptor 51E2: MSSCNFTHATFVLIGIPGLEKAHFWVGFPLLSMYVVAMFGNCIVVFIVRTERSLHAPMYLFLCMLAAIDLALSTSTMPKILALFWFDSREISFEACLTQMFFIHALSAIESTILLAMAFDRYVAICHPLRHAAVLNNTVTAQIGIVAVVRGSLFFFPLPLLIKRLAFCHSNVLSHSYCVHQDVMKLAYADTLPNVVYGLTAILLVMGVDVMFISLSYFLIIRTVLQLPSKSERAKAFGTCVSHIGVVLAFYVPLIGLSVVHRFGNSLHPIVRVVMGDIYLLLPPVINPIIYGAKTKQIRTRVLAMFKISCDKDLQAVGGK
modifications: Flag tag
notes: human olfactory receptor, Flag-tagged construct

What was measured:
[1] = tested on: human GPR160; test: Surface expression of human GPR160; format: cell-based; conditions: HEK293T cells
[2] = tested on: murine Gpr160; test: Surface expression of murine Gpr160; format: cell-based; conditions: HEK293T cells
[3] = target: T1, mOREG; test: CRE luciferase reporter assay (Firefly:Renilla), mOREG constructs; format: cell-based, murine; conditions: Rho-mOREG, Lucy-mOREG, no RTP1S, 100-300 μM eugenol
Protocol: The luciferase assay was performed as previously described. Briefly, ORs were transfected into HEK293T cells along with constructs encoding for CREB-dependent luciferase (Firefly) and a constitutively expressed luciferase (Renilla). OR activation leads to a rise in cAMP which drives an increase in Firefly luciferase expression. Firefly activity is normalized to the activity of the Renilla luciferase to control for variation in cell number and transfection efficiency. Data were collected using a FLUOstar Omega automated platereader (BMG LabTech, Cary, N.C.). For some experiments, RTP1S was also transfected.
As mOREG is one of the ORs that reach the cell surface under every condition tested, we expressed the OR with and without the Lucy and Rho tags and assessed its response to eugenol.

[4] = target: T2, Olfr691; test: CRE luciferase reporter assay (Firefly:Renilla), Olfr691 constructs; conditions: 0.1-5 mM isovaleric acid
[5] = tested on: HEK293T cells; test: Surface immunocytochemistry of Flag-tagged olfactory receptor constructs; format: cell-based; design: key to OR surface expression (trafficking): −: No detectable OR surface expression; +: OR surface expression detected in the majority of fields of view (>90% of all fields of view); *: OR surface expression detected in a minority of fields of view (<50% of all fields of view); conditions: for OR surface expression (trafficking): HEK293T
Protocol: HEK293T cells were seeded onto 18-mm coverslips coated with poly-L-lysine and transfected with OR constructs with or without accessory proteins (Lipofectamine 2000, Invitrogen). Flag-tagged OR trafficking was assayed using surface immunocytochemistry, as previously described. Briefly, live, non-permeabilized cells at 4° C. were exposed to a rabbit polyclonal anti-Flag antibody in PBS with 0.1% BSA. Subsequently, cells were washed, fixed with 4% paraformaldehyde, permeabilized (0.3% Triton X-100) and then exposed to a mouse monoclonal (M2) anti-Flag antibody. As the external Flag epitope (surface Flag) epitope is ‘blocked’ after binding to the polyclonal Flag antibody, the monoclonal Flag antibody detects only the internal population of ORs. […] Fluorescent secondary antibodies reported the localization of the polyclonal and monoclonal Flag-tags. Cells were visualized for epifluorescence using a Zeiss Axiophot microscope (Thornwood, N.Y.). Images were taken with a CoolSnap Digita Camera (Photometrics, Tucson, Ariz.) and IP Labs software (Biovision, Exton, Pa.). For some experiments, a total of 0.8 μg of accessory plasmids (pcDNA3-RTP1S (modified from RTP1L, kind gift from S. Firestein, Columbia Univ.), pCMV Sport6-Ric8b (purchased from Open Biosystems), and pcDNA3.1-Gαolf (subcloned from a pGEMHE2 Gαolf construct, kind gift from S. Firestein, Columbia Univ.)) or 0.8 μg of an empty pcDNA4.1 vector (OR alone) were co-transfected along with 0.8 μg of the OR. In FIGS. 1 and 2, the immunofluorescent images shown in each row (OR, Rho-OR, Lucy-OR and Lucy-Rho-OR with and without accessory proteins) were transfected and processed simultaneously and image exposures remained constant for each OR. Images represent representative fields of view from at least 4 independent experiments. To assess OR surface expression, the entirety of each coverslip was systematically scanned and scored based on detectable surface immunofluorescence. A ‘+’ was scored for those ORs whose surface expression was detectable in >90% of all fields of view while ORs received an ‘*’ if surface expression was found in <50% of all fields of view. A complete lack of detectable surface expression was scored as a ‘−’. To quantitate cell surface expression using ImageJ (FIG. 14), the background was subtracted from the surface labeled Olfr691 images and the mean fluorescence intensity was measured. The mean intensity was normalized to the mean intensity of the corresponding binary nuclear image, to control for cell number.
ORs were cloned and co-expressed in HEK293T cells without Rho or Lucy tags (OR), with a Rho tag (Rho-OR), with the Lucy tag (Lucy-OR) or with both the Lucy and Rho tags (Lucy-Rho-OR) along with (or without) the chaperone proteins, RTP1S, Ric8b and Gαolf. The cells were then surface labeled with a Flag antibody to detect membrane-associated OR. Images were taken for each OR at equal exposure for all conditions. To assess OR surface expression, the entirety of each coverslip was systematically scanned and scored based on detectable surface immunofluorescence. A ‘+’ was scored for those ORs whose surface expression was detectable in >90% of all fields of view while ORs received an ‘*’ if surface expression was found in <50% of all fields of view. A complete lack of detectable surface expression was scored as a ‘−’.
Many ORs remain orphan receptors due to their inability to traffic in in vitro assays. To establish the trafficking ability of a varied group of ORs, we cloned 15 diverse ORs, the majority of which are orphan receptors which have not been previously reported to reach the cell surface. Live, non-permeabilized HEK 293T cells were surface labeled with a Flag antibody to detect membrane associated receptor and OR surface expression was scored based on detectable surface immunofluorescence. […]

[6] = column 1: OR (Flag tag only, no Rho or Lucy tag), chaperones none
[7] = column 2: OR (Flag tag only), with RTP1S, Ric8b, Gαolf
[8] = column 3: Rho-OR, chaperones none
[9] = column 4: Rho-OR, with RTP1S, Ric8b, Gαolf
[10] = column 5: Lucy-OR, chaperones none
[11] = column 6: Lucy-OR, with RTP1S, Ric8b, Gαolf
[12] = column 7: Lucy-Rho-OR, chaperones none
[13] = column 8: Lucy-Rho-OR, with RTP1S, Ric8b, Gαolf

Molecule | OR surface expression (trafficking) [5, 6] | OR surface expression (trafficking) [5, 7] | OR surface expression (trafficking) [5, 8] | OR surface expression (trafficking) [5, 9] | OR surface expression (trafficking) [5, 10] | OR surface expression (trafficking) [5, 11] | OR surface expression (trafficking) [5, 12] | OR surface expression (trafficking) [5, 13] | also measured
Lucy tag: 17-amino acid cleavable signal peptide from LRRC32, MRPQILLLLALLTLGLA (SEQ ID NO:3) (Amino acid sequence of Lucy tag) |  |  |  |  |  |  |  |  | surface expression of human GPR160 [1]: promotes surface expression; surface expression of murine Gpr160 [2]: promotes surface expression
C=CCc1ccc(O)c(OC)c1 [eugenol] |  |  |  |  |  |  |  |  | OR activation (Firefly:Renilla ratio) [3]: dose-dependent activation; also recorded: significantly activated
CC(C)CC(=O)O [isovaleric acid] |  |  |  |  |  |  |  |  | OR activation (Firefly:Renilla ratio) ([4]; Lucy-Rho-Olfr691 with and without RTP1S): responded to isovaleric acid in a dose-dependent manner; OR activation (Firefly:Renilla ratio) ([4]; Rho-Olfr691 co-expressed with RTP1S): dose-dependent increase in the Firefly: Renilla ratio; OR activation (Firefly:Renilla ratio) ([4]; Rho-Olfr691 without RTP1S): not significantly activated at any concentration; also recorded: no concentrations of isovaleric acid activated R-691
B1 | − | − | − | − | + (OR surface expression detected in the majority of fields of view (>90% of all fields of view)) | + (OR surface expression detected in the majority of fields of view (>90% of all fields of view)) | + (OR surface expression detected in the majority of fields of view (>90% of all fields of view)) | + (OR surface expression detected in the majority of fields of view (>90% of all fields of view)) | surface trafficking, Rho-tagged vs Lucy-Rho-tagged OR, in words ([5]; no accessory proteins, 24 h transfection): traffic to the surface with but not without the Lucy tag
B2 | + (OR surface expression detected in the majority of fields of view (>90% of all fields of view)) | + (OR surface expression detected in the majority of fields of view (>90% of all fields of view)) | + (OR surface expression detected in the majority of fields of view (>90% of all fields of view)) | + (OR surface expression detected in the majority of fields of view (>90% of all fields of view)) | + (OR surface expression detected in the majority of fields of view (>90% of all fields of view)) | + (OR surface expression detected in the majority of fields of view (>90% of all fields of view)) | + (OR surface expression detected in the majority of fields of view (>90% of all fields of view)) | + (OR surface expression detected in the majority of fields of view (>90% of all fields of view)) | 
